In publication PMC7954794, “Protein context shapes the specificity of SH3 domain-mediated interactions in vivo” (Nature Communications, 2021):

Tests used:
Abp1 (1xFLAG) = test: Western blot expression level of Abp1 SH3-swapped baits (Fig. S2A-B); format: cell-based, Saccharomyces cerevisiae; set-up: Flag (2 bands): unit not given here; conditions: sheet FigS2A-B
Outline: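 Yeast expressing DHFR F[1,2]-FLAG-tagged baits grown in synthetic complete medium at 30 °C to OD600 ~1.0, lysed with glass beads in Tris pH 7.4/150 mM NaCl/1% Triton X-100. Baits immunoprecipitated on FLAG-M2 beads 120 min at 4 °C, resolved on 10% SDS-PAGE, probed with anti-FLAG HRP (ECL), signals quantified by imager.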

[1] = tested on: growth of yeast strains under 51 stress conditions; test: Growth assays in 51 stress conditions (Fig. 1E-F, S2D, S5B); format: cell-based, Saccharomyces cerevisiae; set-up: Sla1 strains growth distance: scale not given here; conditions: 51 stress conditions, Fig S5B
Outline: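 Yeast WT, SH3-deleted, KO, SH3-swapped and SH3-shuffled strains pinned in 1536 format, 12 replicates each; pregrown on YPD 2 days at 30 °C, then replicated onto 51 media at 37 °C and imaged every 2 h. Growth score = mean of per-plate median log2 colony size at 74 h.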

B1: WT (protein, UniProt P15891 2-592, looked up)
Actin-binding protein: ALEPIDYTTHSREIDAEYLKIVRGSDPDTTWLIISPNAKKEYEPESTGSSFHDFLQLFDETKVQYGLARVSPPGSDVEKIIIIGWCPDSAPLKTRASFAANFAAVANNLFKGYHVQVTARDEDDLDENELLMKISNAAGARYSIQTSSKQQGKASTPPVKKSFTPSKSPAPVSKKEPVKTPSPAPAAKISSRVNDNNDDDDWNEPELKERDFDQAPLKPNQSSYKPIGKIDLQKVIAEEKAKEDPRLVQKPTAAGSKIDPSSDIANLKNESKLKRDSEFNSFLGTTKPPSMTESSLKNDDDKVIKGFRNEKSPAQLWAERKAKQNSGNAETKAEAPKPEVPEDEPEGEPDVKDLKSKFEGLAASEKEEEEMENKFAPPPKKSEPTIISPKPFSKPQEPVKAEEAEQPKTDYKKIGNPLPGMHIEADNEEEPEENDDDWDDDEDEAAQPPLPSRNVASGAPVQKEEPEQEEIAPSLPSRNSIPAPKQEEAPEQAPEEEIEEEAEEAAPQLPSRSSAAPPPPPRRATPEKKPKENPWATAEYDYDAAEDNELTFVENDKIINIEFVDDDWWLGELEKDGSKGLFPSNYVSLGN
Abp1 (1xFLAG); Flag signal relative to Abp1 WT (Abp1-1 to Abp1-4 = 1)
  Ratio Swap/WT Flag: 0.6226
Abp1 (1xFLAG); Western blot Flag signal (2 bands), Abp1 WT, SH3-deleted or SH3-swapped
  Flag (2 bands): 60270

B2: WT¦WT¦WT (protein, UniProt P32790 1-1244, looked up)
Actin cytoskeleton-regulatory …: MTVFLGIYRAVYAYEPQTPEELAIQEDDLLYLLQKSDIDDWWTVKKRVIGSDSEEPVGLVPSTYIEEAPVLKKVRAIYDYEQVQNADEELTFHENDVFDVFDDKDADWLLVKSTVSNEFGFIPGNYVEPENGSTSKQEQAPAAAEAPAATPAAAPASAAVLPTNFLPPPQHNDRARMMQSKEDQAPDEDEEGPPPAMPARPTATTETTDATAAAVRSRTRLSYSDNDNDDEEDDYYYNSNSNNVGNHEYNTEYHSWNVTEIEGRKKKKAKLSIGNNKINFIPQKGTPHEWSIDKLVSYDNEKKHMFLEFVDPYRSLELHTGNTTTCEEIMNIIGEYKGASRDPGLREVEMASKSKKRGIVQYDFMAESQDELTIKSGDKVYILDDKKSKDWWMCQLVDSGKSGLVPAQFIEPVRDKKHTESTASGIIKSIKKNFTKSPSRSRSRSRSKSNANASWKDDELQNDVVGSAAGKRSRKSSLSSHKKNSSATKDFPNPKKSRLWVDRSGTFKVDAEFIGCAKGKIHLHKANGVKIAVAADKLSNEDLAYVEKITGFSLEKFKANDGSSSRGTDSRDSERERRRRLKEQEEKERDRRLKERELYELKKARELLDEERSRLQEKELPPIKPPRPTSTTSVPNTTSVPPAESSNNNNSSNKYDWFEFFLNCGVDVSNCQRYTINFDREQLTEDMMPDINNSMLRTLGLREGDIVRVMKHLDKKFGRENIASIPTNATGNMFSQPDGSLNVATSPETSLPQQLLPQTTSPAQTAPSTSAETDDAWTVKPASKSESNLLSKKSEFTGSMQDLLDLQPLEPKKAAASTPEPNLKDLEPVKTGGTTVPAAPVSSAPVSSAPAPLDPFKTGGNNILPLSTGFVMMPMITGGDMLPMQRTGGFVVPQTTFGMQSQVTGGILPVQKTGNGLIPISNTGGAMMPQTTFGAAATVLPLQKTGGGLIPIATTGGAQFPQTSFNVQGQQQLPTGSILPVQKTANGLISANTGVSMPTVQRTGGTMIPQTSFGVSQQLTGGAMMTQPQNTGSAMMPQTSFNAVPQITGGAMMPQTSFNALPQVTGGAMMPLQRTGGALNTFNTGGAMIPQTSFSSQAQNTGGFRPQSQFGLTLQKTGGIAPLNQNQFTGGAMNTLSTGGVLQQQQPQTMNTFNTGGVMQELQMMTTFNTGGAMQQPQMMNTFNTDGIMQQPQMMNTFNTGGAMQQPQQQALQNQPTGFGFGNGPQQSRQANIFNATASNPFGF
[1]; distance to ABP1¦WT¦WT
  Sla1 strains growth distance: 32.7633
[1]; distance to ABP1¦WT¦WT, listed as WT¦WT¦WT*
  Sla1 strains growth distance: 32.7344
[1]; distance to D¦D¦D
  Sla1 strains growth distance: 13.1994
[1]; distance to D¦D¦D, listed as WT¦WT¦WT*
  Sla1 strains growth distance: 13.2336
[1]; distance to D¦WT¦D
  Sla1 strains growth distance: 4.481
[1]; distance to D¦WT¦D, listed as WT¦WT¦WT*
  Sla1 strains growth distance: 4.3276
[1]; distance to D¦WT¦SH3-1
  Sla1 strains growth distance: 9.537
[1]; distance to D¦WT¦SH3-1, listed as WT¦WT¦WT*
  Sla1 strains growth distance: 9.613
[1]; distance to D¦WT¦SH3-2
  Sla1 strains growth distance: 5.1186
[1]; distance to D¦WT¦SH3-2, listed as WT¦WT¦WT*
  Sla1 strains growth distance: 4.955
[1]; distance to D¦WT¦WT
  Sla1 strains growth distance: 4.59
[1]; distance to D¦WT¦WT, listed as WT¦WT¦WT*
  Sla1 strains growth distance: 4.434
[1]; distance to SH3-2¦SH3-1¦WT
  Sla1 strains growth distance: 7.002
[1]; distance to SH3-2¦SH3-1¦WT, listed as WT¦WT¦WT*
  Sla1 strains growth distance: 6.862
[1]; distance to SH3-2¦WT¦D
  Sla1 strains growth distance: 9.252
[1]; distance to SH3-2¦WT¦D, listed as WT¦WT¦WT*
  Sla1 strains growth distance: 9.12
[1]; distance to SH3-2¦WT¦WT
  Sla1 strains growth distance: 2.328
[1]; distance to SH3-2¦WT¦WT, listed as WT¦WT¦WT*
  Sla1 strains growth distance: 2.435
[1]; distance to SH3-3¦SH3-1¦D
  Sla1 strains growth distance: 3.781
[1]; distance to SH3-3¦SH3-1¦D, listed as WT¦WT¦WT*
  Sla1 strains growth distance: 3.648
[1]; distance to SH3-3¦SH3-1¦SH3-2
  Sla1 strains growth distance: 4.4511
[1]; distance to SH3-3¦SH3-1¦SH3-2, listed as WT¦WT¦WT*
  Sla1 strains growth distance: 4.2977
[1]; distance to SH3-3¦WT¦D
  Sla1 strains growth distance: 11.8089
[1]; distance to SH3-3¦WT¦D, listed as WT¦WT¦WT*
  Sla1 strains growth distance: 11.8591
[1]; distance to SH3-3¦WT¦SH3-1
  Sla1 strains growth distance: 11.5081
[1]; distance to SH3-3¦WT¦SH3-1, listed as WT¦WT¦WT*
  Sla1 strains growth distance: 11.5693
[1]; distance to SH3-3¦WT¦WT
  Sla1 strains growth distance: 11.7278
[1]; distance to SH3-3¦WT¦WT, listed as WT¦WT¦WT*
  Sla1 strains growth distance: 11.7806
[1]; distance to WT*¦WT¦WT
  Sla1 strains growth distance: 0.6236
[1]; distance to WT*¦WT¦WT, listed as WT¦WT¦WT*
  Sla1 strains growth distance: 0.5854
[1]; distance to WT¦ABP1¦WT
  Sla1 strains growth distance: 11.3779
[1]; distance to WT¦ABP1¦WT, listed as WT¦WT¦WT*
  Sla1 strains growth distance: 11.4192
[1]; distance to WT¦D¦D
  Sla1 strains growth distance: 4.458
[1]; distance to WT¦D¦D, listed as WT¦WT¦WT*
  Sla1 strains growth distance: 4.315
[1]; distance to WT¦D¦SH3-2
  Sla1 strains growth distance: 5.097
[1]; distance to WT¦D¦SH3-2, listed as WT¦WT¦WT*
  Sla1 strains growth distance: 4.943
[1]; distance to WT¦D¦WT
  Sla1 strains growth distance: 5.311
[1]; distance to WT¦D¦WT, listed as WT¦WT¦WT*
  Sla1 strains growth distance: 5.149
[1]; distance to WT¦SH3-1¦D
  Sla1 strains growth distance: 0.4704
[1]; distance to WT¦SH3-1¦D, listed as WT¦WT¦WT*
  Sla1 strains growth distance: 0.4379
[1]; distance to WT¦SH3-1¦WT
  Sla1 strains growth distance: 0.4878
[1]; distance to WT¦SH3-1¦WT, listed as WT¦WT¦WT*
  Sla1 strains growth distance: 0.5418
[1]; distance to WT¦SH3-3¦D
  Sla1 strains growth distance: 5.1001
[1]; distance to WT¦SH3-3¦D, listed as WT¦WT¦WT*
  Sla1 strains growth distance: 4.947
[1]; distance to WT¦SH3-3¦SH3-2
  Sla1 strains growth distance: 5.331
[1]; distance to WT¦SH3-3¦SH3-2, listed as WT¦WT¦WT*
  Sla1 strains growth distance: 5.179
[1]; distance to WT¦SH3-3¦WT
  Sla1 strains growth distance: 4.703
[1]; distance to WT¦SH3-3¦WT, listed as WT¦WT¦WT*
  Sla1 strains growth distance: 4.556
[1]; distance to WT¦WT*¦WT
  Sla1 strains growth distance: 0.917
[1]; distance to WT¦WT*¦WT, listed as WT¦WT¦WT*
  Sla1 strains growth distance: 0.7508
[1]; distance to WT¦WT¦ABP1
  Sla1 strains growth distance: 1.932
[1]; distance to WT¦WT¦ABP1, listed as WT¦WT¦WT*
  Sla1 strains growth distance: 1.926
[1]; distance to WT¦WT¦D
  Sla1 strains growth distance: 0.5681
[1]; distance to WT¦WT¦D, listed as WT¦WT¦WT*
  Sla1 strains growth distance: 0.4359
[1]; distance to WT¦WT¦SH3-1
  Sla1 strains growth distance: 0.5772
[1]; distance to WT¦WT¦SH3-1, listed as WT¦WT¦WT*
  Sla1 strains growth distance: 0.4107
[1]; distance to WT¦WT¦SH3-2
  Sla1 strains growth distance: 0.55
[1]; distance to WT¦WT¦SH3-2, listed as WT¦WT¦WT*
  Sla1 strains growth distance: 0.3776
[1]; distance to WT¦WT¦WT*
  Sla1 strains growth distance: 0.496
[1]; distance to WT¦WT¦WT*, listed as WT¦WT¦WT*
  Sla1 strains growth distance: 0
[1]; distance to WT¦WT¦WT
  Sla1 strains growth distance: 0
[1]; distance to WT¦WT¦WT, listed as WT¦WT¦WT*
  Sla1 strains growth distance: 0.496
